The values that follow come from doi:10.1101/2019.12.17.877662 (bioRxiv, 2019).

T1: TtRecF (wild type RecF from Thermus thermophilus) (Thermus thermophilus, UniProt Q5SLM9 1-343)
T1 sequence (looked up): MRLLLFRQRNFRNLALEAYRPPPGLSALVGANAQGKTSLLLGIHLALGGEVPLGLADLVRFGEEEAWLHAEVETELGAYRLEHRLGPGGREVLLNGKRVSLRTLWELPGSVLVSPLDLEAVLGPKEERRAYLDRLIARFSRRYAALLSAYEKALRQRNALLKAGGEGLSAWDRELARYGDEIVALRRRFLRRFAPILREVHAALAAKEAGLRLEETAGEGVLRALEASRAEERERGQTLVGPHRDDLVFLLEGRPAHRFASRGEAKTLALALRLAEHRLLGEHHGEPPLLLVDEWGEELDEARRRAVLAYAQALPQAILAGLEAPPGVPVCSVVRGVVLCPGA

T2: TtRecF;TtRecR (Thermus thermophilus;Thermus …, UniProt Q5SLM9;Q5SHY0 1-343;1-194, |)
T2 sequence 1: T1 sequence (looked up)
T2 sequence 2: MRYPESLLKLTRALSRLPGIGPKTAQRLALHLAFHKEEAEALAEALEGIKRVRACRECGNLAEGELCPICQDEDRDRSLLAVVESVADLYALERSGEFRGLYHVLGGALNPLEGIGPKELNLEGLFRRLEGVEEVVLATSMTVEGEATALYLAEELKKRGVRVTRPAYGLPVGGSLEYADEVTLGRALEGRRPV

T3: TtRecR G169C (Thermus thermophilus, UniProt Q5SHY0 1-194, G169C)
T3 sequence: T2 sequence 2 with G169C

T4: TtRecR (Thermus thermophilus, UniProt Q5SHY0 1-194)
T4 sequence: T2 sequence 2

T5: TtRecF (Thermus thermophilus, UniProt Q5SLM9 1-343)
T5 sequence: T1 sequence (looked up)

T6: TtRecF;TtRecR G169C (Thermus thermophilus;Thermus …, UniProt Q5SLM9;Q5SHY0 1-343;1-194, |G169C)
T6 sequence 1: T1 sequence (looked up)
T6 sequence 2: T2 sequence 2 with G169C

T7: TtSSB (Thermus thermophilus, UniProt Q5SLP9 1-263)
T7 sequence: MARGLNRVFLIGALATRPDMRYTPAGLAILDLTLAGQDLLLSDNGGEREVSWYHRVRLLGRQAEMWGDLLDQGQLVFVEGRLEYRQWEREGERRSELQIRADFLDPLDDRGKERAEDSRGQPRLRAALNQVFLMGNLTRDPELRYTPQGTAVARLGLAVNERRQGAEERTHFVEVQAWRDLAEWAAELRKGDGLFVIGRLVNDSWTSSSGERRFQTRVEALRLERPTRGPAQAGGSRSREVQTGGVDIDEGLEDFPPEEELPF

T8: TtRecF D57C;TtRecR (Thermus thermophilus;Thermus …, UniProt Q5SLM9;Q5SHY0 1-343;1-194, D57C|)
T8 sequence 1: T1 sequence (looked up) with D57C
T8 sequence 2: T2 sequence 2

T9: TtRecF S261C;TtRecR (Thermus thermophilus;Thermus …, UniProt Q5SLM9;Q5SHY0 1-343;1-194, S261C|)
T9 sequence 1: T1 sequence (looked up) with S261C
T9 sequence 2: T2 sequence 2

T10: TtRecF S261C (Thermus thermophilus, UniProt Q5SLM9 1-343, S261C)
T10 sequence: T1 sequence (looked up) with S261C

T11: TtRecF D57C (Thermus thermophilus, UniProt Q5SLM9 1-343, D57C)
T11 sequence: T1 sequence (looked up) with D57C

B1: TtRecR (wild type RecR from Thermus thermophilus) (natural protein, UniProt Q5SHY0 1-194, looked up)
chain: T2 sequence 2
B2: TtRecR_(G169C) (stabilized tetrameric mutant of TtRecR) (natural protein, Thermus thermophilus, UniProt Q5SHY0 1-194, looked up)
chain: T2 sequence 2 with G169C
B3: TtRecF_(D57C) (natural protein, Thermus thermophilus, UniProt Q5SLM9 1-343, looked up)
chain: T1 sequence (looked up) with D57C
B4: TtRecF_(S261C) (natural protein, Thermus thermophilus, UniProt Q5SLM9 1-343, looked up)
chain: T1 sequence (looked up) with S261C

The data set “crystal structure” concerns the molecule itself. In words: crystal structure.
Data set [1] has as its target T1, TtRecF (wild type RecF from Thermus …). In words: native gel or EMSA. On the technique in general: A gel shift assay detects complexes by their altered migration in electrophoresis.
The data set “TtRecF_(D57C)” deals with B3. The experiment in a line: BLI.
The data set “TtRecF_(S261C)” addresses B4. In words: BLI.
The data set “cross-linking” deals with the molecule itself. The experiment in a line: cross-linking.
The next data set has as its target T2, TtRecF;TtRecR. The experiment in a line: EMSA.
The target of data set [2] is T3, TtRecR G169C. In words: EMSA.
Data set [3] has as its target T4, TtRecR. The experiment in a line: EMSA.
The target in the next data set is T5, TtRecF. The experiment in a line: EMSA.
For another data set, the target named is T6, TtRecF;TtRecR G169C. In words: EMSA.
For the next data set, the target named is T7, TtSSB. The experiment in a line: BLI. A general note: Biolayer interferometry detects binding as a change in optical thickness at a sensor tip.
The target of data set [4] is T4, TtRecR. In words: BLI.
A further data set deals with T8, TtRecF D57C;TtRecR. In words: BLI.
The next data set deals with T9, TtRecF S261C;TtRecR. The experiment in a line: BLI.
The target in data set [5] is T3, TtRecR G169C. The experiment in a line: BLI.
Another data set concerns the target T10, TtRecF S261C. In words: BLI.
The next data set concerns the target T11, TtRecF D57C. The experiment in a line: BLI.

Where a chain is given by its changes, count along the chain named. In names and notes the source's numbering stands.

A word on the stoichiometry N: it is the number of molecules, sites or subunits per partner or assembly. With B1, the “stoichiometry N” value in the data set “crystal structure” stood at 4. Moreover, the binding result (in data set [1]; with TtRecF_(D57C); with TtRecF_(S261C)) was “binds” in each case.
B2: the “stoichiometry N” value in “cross-linking” was found to be 4. Moreover, the binding result in data set [1] was “binds”.
For the molecule TTTTTTTTTTTTTTTTTTTTTTTTTTTTTTTTTTT (ssDNA) [FAM-dT35], the binding result is listed as “binds” with TtRecF;TtRecR; “no binding” with TtRecR G169C [2]; “no binding” with TtRecR [3]; “no binding” with TtRecF; “no binding” with TtRecF;TtRecR G169C.
By Kd is commonly meant the equilibrium constant for the complex coming apart. A low value points to higher affinity. In the case of GCAATGAAGTACGCTTGCCAGCTGCAGTCATGATTG (ssDNA) [biotinylated 36-mer ssDNA], the Kd with TtSSB is roughly 7.2 nM; in the data set with TtRecF S261C, 19.7 µM; with TtRecF D57C it was 146 µM. Also, the binding result is “no binding” with TtRecR [4], “binds” in the data set with TtRecF D57C;TtRecR, “binds” with TtRecF S261C;TtRecR and “binds” in the data set with TtRecR G169C [5].
B3: in “cross-linking”, the “stoichiometry N” value amounted to 2.
Same read-out and setting: the result for B4 reads 2.
